{
  "source": "patent US20230250154",
  "key": {"[1]": {"test_system": "the four selected A2M variants"}, "[2]": {"test_system": "T1, Tagged wild-type human A2M", "T1 sequence": "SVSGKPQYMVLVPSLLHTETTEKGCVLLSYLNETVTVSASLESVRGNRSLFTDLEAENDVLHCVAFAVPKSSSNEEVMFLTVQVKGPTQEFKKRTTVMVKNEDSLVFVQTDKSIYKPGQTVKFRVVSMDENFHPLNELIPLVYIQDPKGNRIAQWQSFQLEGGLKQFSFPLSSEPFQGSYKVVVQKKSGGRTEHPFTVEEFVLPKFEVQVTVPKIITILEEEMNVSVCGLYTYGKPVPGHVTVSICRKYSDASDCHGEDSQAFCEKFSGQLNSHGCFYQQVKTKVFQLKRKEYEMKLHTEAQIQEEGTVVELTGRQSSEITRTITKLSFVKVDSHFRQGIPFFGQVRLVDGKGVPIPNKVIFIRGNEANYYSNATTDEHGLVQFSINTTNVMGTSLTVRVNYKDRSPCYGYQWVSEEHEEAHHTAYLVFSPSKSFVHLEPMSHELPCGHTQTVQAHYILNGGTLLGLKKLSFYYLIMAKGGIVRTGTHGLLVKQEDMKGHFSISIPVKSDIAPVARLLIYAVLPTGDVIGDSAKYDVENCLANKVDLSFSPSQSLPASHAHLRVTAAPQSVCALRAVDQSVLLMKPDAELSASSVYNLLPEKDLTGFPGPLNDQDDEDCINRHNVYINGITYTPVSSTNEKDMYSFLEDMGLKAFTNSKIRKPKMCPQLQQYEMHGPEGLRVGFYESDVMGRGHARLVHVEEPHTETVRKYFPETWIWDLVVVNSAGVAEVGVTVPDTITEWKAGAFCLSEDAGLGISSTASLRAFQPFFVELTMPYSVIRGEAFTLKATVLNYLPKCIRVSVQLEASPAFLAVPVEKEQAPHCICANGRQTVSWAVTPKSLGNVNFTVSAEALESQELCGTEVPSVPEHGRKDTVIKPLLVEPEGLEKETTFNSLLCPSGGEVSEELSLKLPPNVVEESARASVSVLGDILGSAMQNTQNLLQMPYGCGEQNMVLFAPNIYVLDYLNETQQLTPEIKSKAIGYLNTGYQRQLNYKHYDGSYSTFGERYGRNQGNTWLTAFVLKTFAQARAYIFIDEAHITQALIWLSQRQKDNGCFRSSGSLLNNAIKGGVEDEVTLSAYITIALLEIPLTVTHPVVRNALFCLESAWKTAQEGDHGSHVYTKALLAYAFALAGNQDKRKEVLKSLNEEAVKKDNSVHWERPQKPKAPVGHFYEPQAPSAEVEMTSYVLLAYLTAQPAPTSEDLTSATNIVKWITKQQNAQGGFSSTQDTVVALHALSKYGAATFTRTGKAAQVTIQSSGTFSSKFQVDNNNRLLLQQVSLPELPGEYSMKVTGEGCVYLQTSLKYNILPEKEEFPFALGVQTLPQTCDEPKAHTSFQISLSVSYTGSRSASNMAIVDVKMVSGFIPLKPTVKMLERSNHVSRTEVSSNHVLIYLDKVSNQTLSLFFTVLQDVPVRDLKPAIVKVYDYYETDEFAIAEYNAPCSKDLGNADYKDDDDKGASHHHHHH"}},
  "data": [
    {"substance": "chymotrypsin", "values": [
      {"measurement": "slope of FTC-casein digestion (fluorescent proteolysis assay)", "setting": "[1]", "value": "the variants are all capable of inhibiting various proteases, including trypsin and chymotrypsin approximately equally, to the wild-type A2M"},
      {"measurement": "slope of FTC-casein digestion (fluorescent proteolysis assay)", "setting": "[2]", "value": "the variants are all capable of inhibiting various proteases, including trypsin and chymotrypsin approximately equally, to the wild-type A2M"}
    ]}
  ]
}
